Experimental data reported in the supplement of paper PMC9112550, “Optimization of the antimicrobial peptide Bac7 by deep mutational scanning” (BMC Biology, 2022).

test system: Escherichia coli TOP10; assay: shrunken log2 fold change of peptide-encoding DNA abundance (4.5 h post-induction vs induction); higher = less antimicrobial activity (less host growth inhibition); settings: time post-induction: 4.5 h; library: site-saturation at positions 5, 18, 19, 20
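Further: peptides expressed intracellularly from a pBAD plasmid library in pooled LB shake-flask culture, induced with 0.3% L-arabinose, DNA abundance read by NGS, three biological replicates, DESeq2 with apeglm shrinkage.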

Row | Sequence | shrunken log2 fold change
1 | RRIRIRPPRLPRPRPRPDCGPRP | 0.0585
2 | RRIRLRPPRLPRPRPRPHPDPRP | -0.111
3 | RRIRHRPPRLPRPRPRPSVMPRP | -0.19
4 | RRIRGRPPRLPRPRPRPFPSPRP | 0.142
5 | RRIRDRPPRLPRPRPRPNYLPRP | -0.126
6 | RRIRERPPRLPRPRPRPFLSPRP | -0.11
7 | RRIRHRPPRLPRPRPRPHHTPRP | -0.71
8 | RRIRYRPPRLPRPRPRPNKAPRP | -0.0417
9 | RRIRKRPPRLPRPRPRPHIGPRP | -0.0664
10 | RRIRPRPPRLPRPRPRPVWCPRP | 0.0172
11 | RRIRMRPPRLPRPRPRPFFTPRP | -0.054
12 | RRIRCRPPRLPRPRPRPMRAPRP | 0.919
13 | RRIRRRPPRLPRPRPRPFLMPRP | 0.0572
14 | RRIRDRPPRLPRPRPRPYQQPRP | -0.184
15 | RRIRVRPPRLPRPRPRPGNGPRP | 0.023
16 | RRIRKRPPRLPRPRPRPKHYPRP | -0.283
17 | RRIRRRPPRLPRPRPRPESPPRP | 0.5
18 | RRIRGRPPRLPRPRPRPFWSPRP | 0.679
19 | RRIRWRPPRLPRPRPRPPSGPRP | 0.127
20 | RRIRRRPPRLPRPRPRPMFFPRP | -0.0274
21 | RRIRNRPPRLPRPRPRPGQRPRP | 0.00993
22 | RRIRWRPPRLPRPRPRPPPDPRP | 0.906
23 | RRIRCRPPRLPRPRPRPDMHPRP | 0.0405
24 | RRIRERPPRLPRPRPRPIRWPRP | -0.0251
25 | RRIRFRPPRLPRPRPRPSVHPRP | -0.233

Row | Sequence | shrunken log2 fold change
26 | RRIRRRPPRLPRPRPRPSNQPRP | 0.00316
27 | RRIRRRPPRLPRPRPRPCKVPRP | -0.0103
28 | RRIRTRPPRLPRPRPRPVWAPRP | 0.237
29 | RRIRGRPPRLPRPRPRPLFTPRP | 0.572
30 | RRIRGRPPRLPRPRPRPAWNPRP | 0.378
31 | RRIRGRPPRLPRPRPRPMIQPRP | 0.522
32 | RRIRERPPRLPRPRPRPPKDPRP | 0.00712
33 | RRIRNRPPRLPRPRPRPMWLPRP | 0.0773
34 | RRIRPRPPRLPRPRPRPQITPRP | -0.314
35 | RRIRFRPPRLPRPRPRPVAIPRP | -0.0527
36 | RRIRVRPPRLPRPRPRPRFAPRP | 0.527
37 | RRIRTRPPRLPRPRPRPYTKPRP | -0.248
38 | RRIRCRPPRLPRPRPRPMFMPRP | -0.246
39 | RRIRNRPPRLPRPRPRPVHAPRP | 0.0862
40 | RRIRCRPPRLPRPRPRPFWVPRP | 0.0496
41 | RRIRNRPPRLPRPRPRPLYFPRP | -0.477
42 | RRIRTRPPRLPRPRPRPSCKPRP | -0.885
43 | RRIRKRPPRLPRPRPRPIFMPRP | 0.0293
44 | RRIRGRPPRLPRPRPRPGACPRP | 0.911
45 | RRIRYRPPRLPRPRPRPGNLPRP | 0.0185
46 | RRIRERPPRLPRPRPRPKCRPRP | -0.0625
47 | RRIRPRPPRLPRPRPRPQDLPRP | -0.13
48 | RRIRSRPPRLPRPRPRPQDEPRP | -0.101
49 | RRIRTRPPRLPRPRPRPQYFPRP | -0.395
50 | RRIRYRPPRLPRPRPRPVWWPRP | 0.113

Row | Sequence | shrunken log2 fold change
51 | RRIRRRPPRLPRPRPRPLGWPRP | 1.07
52 | RRIRVRPPRLPRPRPRPWWYPRP | -0.327
53 | RRIRFRPPRLPRPRPRPSFYPRP | -0.514
54 | RRIRFRPPRLPRPRPRPLVAPRP | -0.00793
55 | RRIRQRPPRLPRPRPRPCWPPRP | 0.193
56 | RRIRDRPPRLPRPRPRPCNEPRP | -0.0633
57 | RRIRCRPPRLPRPRPRPCEAPRP | -0.369
58 | RRIRHRPPRLPRPRPRPWGFPRP | -0.0192
59 | RRIRIRPPRLPRPRPRPKFGPRP | 0.0227
60 | RRIRTRPPRLPRPRPRPMMAPRP | 0.0689
61 | RRIRVRPPRLPRPRPRPEDMPRP | -0.115
62 | RRIRGRPPRLPRPRPRPIRIPRP | 0.217
63 | RRIRQRPPRLPRPRPRPERIPRP | -0.328
64 | RRIRIRPPRLPRPRPRPPPGPRP | 0.685
65 | RRIRFRPPRLPRPRPRPTFPPRP | -0.0193
66 | RRIRGRPPRLPRPRPRPTDHPRP | 0.335
67 | RRIRSRPPRLPRPRPRPQYAPRP | -0.282
68 | RRIRGRPPRLPRPRPRPRSTPRP | 0.978
69 | RRIRIRPPRLPRPRPRPGECPRP | -0.143
70 | RRIRHRPPRLPRPRPRPAVDPRP | 0.0722
71 | RRIRRRPPRLPRPRPRPQCSPRP | 0.109
72 | RRIRQRPPRLPRPRPRPQQWPRP | 0.201
73 | RRIRQRPPRLPRPRPRPFENPRP | -0.00804
74 | RRIRNRPPRLPRPRPRPQMLPRP | -0.409
75 | RRIRYRPPRLPRPRPRPWLEPRP | -0.118

Row | Sequence | shrunken log2 fold change
76 | RRIRTRPPRLPRPRPRPVDWPRP | 0.0292
77 | RRIRLRPPRLPRPRPRPSLQPRP | -0.348
78 | RRIRHRPPRLPRPRPRPCKVPRP | -0.0825
79 | RRIRKRPPRLPRPRPRPYWCPRP | -0.485
80 | RRIRNRPPRLPRPRPRPEVHPRP | -0.0167
81 | RRIRPRPPRLPRPRPRPRNPPRP | 0.405
82 | RRIRVRPPRLPRPRPRPGIWPRP | 0.339
83 | RRIRGRPPRLPRPRPRPYRRPRP | -0.00129
84 | RRIRFRPPRLPRPRPRPEIWPRP | 0.217
85 | RRIRQRPPRLPRPRPRPPDPPRP | 0.151
86 | RRIRARPPRLPRPRPRPMHEPRP | 0.671
87 | RRIRWRPPRLPRPRPRPTYRPRP | 0.146
88 | RRIRKRPPRLPRPRPRPSSFPRP | 0.0223
89 | RRIRARPPRLPRPRPRPYEEPRP | -0.441
90 | RRIRERPPRLPRPRPRPFHWPRP | -0.0575
91 | RRIRGRPPRLPRPRPRPRCTPRP | 0.892
92 | RRIRCRPPRLPRPRPRPSSCPRP | -0.211
93 | RRIRQRPPRLPRPRPRPQTSPRP | 0.219
94 | RRIRTRPPRLPRPRPRPPGGPRP | 0.637
95 | RRIRPRPPRLPRPRPRPRPLPRP | 0.627
96 | RRIRLRPPRLPRPRPRPTAEPRP | 0.16
97 | RRIRHRPPRLPRPRPRPECLPRP | -0.00297
98 | RRIRYRPPRLPRPRPRPNEVPRP | -0.00663
99 | RRIRKRPPRLPRPRPRPCFIPRP | -0.13
100 | RRIRGRPPRLPRPRPRPDHEPRP | 0.858

Row | Sequence | shrunken log2 fold change
101 | RRIRGRPPRLPRPRPRPDTKPRP | 0.239
102 | RRIRGRPPRLPRPRPRPSWWPRP | 0.537
103 | RRIRNRPPRLPRPRPRPTWCPRP | -0.0306
104 | RRIRKRPPRLPRPRPRPATIPRP | 0.00392
105 | RRIRYRPPRLPRPRPRPAQPPRP | -0.0284
106 | RRIRSRPPRLPRPRPRPLHQPRP | -0.248
107 | RRIRNRPPRLPRPRPRPSSMPRP | -0.458
108 | RRIRDRPPRLPRPRPRPHMMPRP | 0.158
109 | RRIRLRPPRLPRPRPRPRDVPRP | 0.176
110 | RRIRSRPPRLPRPRPRPGQTPRP | -0.0742
111 | RRIRTRPPRLPRPRPRPLHGPRP | 0.184
112 | RRIRERPPRLPRPRPRPWWMPRP | -0.436
113 | RRIRFRPPRLPRPRPRPFWGPRP | 0.0215
114 | RRIRSRPPRLPRPRPRPIFQPRP | -0.0307
115 | RRIRLRPPRLPRPRPRPKRFPRP | 0.104
116 | RRIRFRPPRLPRPRPRPPYYPRP | -0.464
117 | RRIRMRPPRLPRPRPRPGSLPRP | 0.432
118 | RRIRARPPRLPRPRPRPAFSPRP | 0.215
119 | RRIRHRPPRLPRPRPRPHRNPRP | -0.117
120 | RRIRNRPPRLPRPRPRPCQMPRP | -0.0139
121 | RRIRQRPPRLPRPRPRPMAFPRP | -0.0854
122 | RRIRYRPPRLPRPRPRPCLLPRP | -1.04
123 | RRIRQRPPRLPRPRPRPCFHPRP | -0.425
124 | RRIRNRPPRLPRPRPRPWPPPRP | 0.692
125 | RRIRHRPPRLPRPRPRPRPLPRP | 0.255

Row | Sequence | shrunken log2 fold change
126 | RRIRPRPPRLPRPRPRPRLGPRP | 0.586
127 | RRIRARPPRLPRPRPRPPRWPRP | 0.794
128 | RRIRVRPPRLPRPRPRPNGMPRP | -0.32
129 | RRIRWRPPRLPRPRPRPIVKPRP | -0.174
130 | RRIRPRPPRLPRPRPRPLTDPRP | 0.111
131 | RRIRFRPPRLPRPRPRPFQYPRP | -0.127
132 | RRIRGRPPRLPRPRPRPCDGPRP | 0.123
133 | RRIRHRPPRLPRPRPRPFPKPRP | 0.0904
134 | RRIRWRPPRLPRPRPRPRDHPRP | 0.526
135 | RRIRHRPPRLPRPRPRPSNEPRP | -0.271
136 | RRIRCRPPRLPRPRPRPQHCPRP | -0.287
137 | RRIRERPPRLPRPRPRPVHMPRP | -0.0419
138 | RRIRQRPPRLPRPRPRPWCCPRP | 0.0636
139 | RRIRRRPPRLPRPRPRPNIWPRP | 0.134
140 | RRIRERPPRLPRPRPRPQSTPRP | -0.319
141 | RRIRFRPPRLPRPRPRPNCDPRP | -0.144
142 | RRIRIRPPRLPRPRPRPQHQPRP | -0.344
143 | RRIRIRPPRLPRPRPRPACFPRP | 0.199
144 | RRIRFRPPRLPRPRPRPGAPPRP | 0.54
145 | RRIRERPPRLPRPRPRPPFLPRP | -0.075
146 | RRIRLRPPRLPRPRPRPPHPPRP | 0.404
147 | RRIRERPPRLPRPRPRPDPNPRP | 0.0422
148 | RRIRLRPPRLPRPRPRPTIKPRP | -0.395
149 | RRIRKRPPRLPRPRPRPTTRPRP | 0.717
150 | RRIRGRPPRLPRPRPRPPQNPRP | 1.01
